Reference: the supplement of paper PMC10724198
± gives the standard deviation of the averaged measurements.

Test system: Saccharomyces cerevisiae
Test: protein stability index of tFT-peptide fusion (C-terminal peptide) (PSI (0-1 scale)); higher = more stable (slower turnover)
Conditions: temperature: 30 C
Protocol: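 MPS profiling in S. cerevisiae of the yeast C-terminome library: the last 12 aa of each annotated ORF are fused to the C-terminus of a sfGFP-mCherry timer, after a GGGS linker. Cells are FACS-sorted into 8 mCherry/sfGFP bins and deep-sequenced. PSI runs from 0 (unstable) to 1 (stable); wild type and das1Δ backgrounds, two technical replicates each.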

[1] = genetic background: das1 deletion

Sequence	protein stability index [1]	protein stability index (genetic background: wild type)
AMDHKFFKTKFE [CKA2 C-terminal 12 aa]	0.68817 ± 0.00016	0.708 ± 0.025
AMMKAEENFVKS [MAG1 C-terminal 12 aa]	0.655 ± 0.029	0.6762 ± 0.00091
ANEALQHILDDS [INO2 C-terminal 12 aa]	0.6882 ± 0.0011	0.69 ± 0.024
AQLVSLVRNQKH [YLR198C C-terminal 12 aa]	0.717 ± 0.022	0.6998 ± 0.005
ARAAAEYDCTVA [ATR1 C-terminal 12 aa]	0.702 ± 0.013	0.7 ± 0.036
ARAAEERMKKKY [VMS1 C-terminal 12 aa]	0.671 ± 0.023	0.663 ± 0.038
AREAVVRAGFDS [YIH1 C-terminal 12 aa]	0.729 ± 0.01	0.745 ± 0.071
ASGEYESDGSDD [RRN3 C-terminal 12 aa]	0.677 ± 0.026	0.709 ± 0.063
ASNGSIFQFSSP [REC104 C-terminal 12 aa]	0.692 ± 0.023	0.718 ± 0.01
ASSSDRPTVAAT [RRT5 C-terminal 12 aa]	0.6995 ± 0.0066	0.681 ± 0.021
ATICSVAFVKQN [EFM4 C-terminal 12 aa]	0.6241 ± 0.0034	0.224 ± 0.011
ATPPYQVFKQQL [FMN1 C-terminal 12 aa]	0.698 ± 0.071	0.668 ± 0.028
ATRRHLAHAPKL [DPI8 C-terminal 12 aa]	0.799 ± 0.016	0.782 ± 0.064
AVETLKKGGFLP [YDL177C C-terminal 12 aa]	0.7 ± 0.013	0.685 ± 0.0071
AVFYIFETLSAL [ORT1 C-terminal 12 aa]	0.653 ± 0.015	0.654 ± 0.0084
AVGIQSSESLLM [YMR175W-A C-terminal 12 aa]	0.688 ± 0.012	0.715 ± 0.031
AVKYLYRQIVRN [EFM2 C-terminal 12 aa]	0.6832 ± 0.0033	0.6213 ± 0.0041
AVNGSDGQHCQI [AVT2 C-terminal 12 aa]	0.687 ± 0.023	0.6543 ± 0.0021
AYQITKRGIETA [RAD57 C-terminal 12 aa]	0.675 ± 0.061	0.6951 ± 0.004
CAVDAIFYWLLM [GMC1 C-terminal 12 aa]	0.652 ± 0.026	0.486 ± 0.026
CAVGGPEKLKFY [BUD3 C-terminal 12 aa]	0.726 ± 0.018	0.758 ± 0.018

Sequence	protein stability index [1]	protein stability index (genetic background: wild type)
CCGSVLLWCLVV [YLR437C-A C-terminal 12 aa]	0.4309 ± 0.0019	0.27 ± 0.0046
CDLVKNSNGLST [YOR200W C-terminal 12 aa]	0.68 ± 0.01	0.685 ± 0.039
CENANYRGAEVP [YIL175W C-terminal 12 aa]	0.692 ± 0.017	0.689 ± 0.015
CFSCFHLSTHTN [YDR157W C-terminal 12 aa]	0.725 ± 0.018	0.6252 ± 0.005
CFWRMICSEPKL [YAR064W C-terminal 12 aa]	0.736 ± 0.0093	0.623 ± 0.052
CGGRPQYGVMFA [YDR249C C-terminal 12 aa]	0.6887 ± 0.0013	0.702 ± 0.023
CINCSRFIHNIN [YMR230W-A C-terminal 12 aa]	0.70103 ± 0.00057	0.304 ± 0.013
CNLFSERKPVNH [YGL188C-A C-terminal 12 aa]	0.6966 ± 0.0021	0.691 ± 0.011
CSGIPSGSGASC [PGU1 C-terminal 12 aa]	0.691 ± 0.011	0.673 ± 0.076
CWMLWLQDRPVC [YBL112C C-terminal 12 aa]	0.627 ± 0.017	0.625 ± 0.02
CYQDYNHDHRSH [OSW2 C-terminal 12 aa]	0.7147 ± 0.0055	0.6835 ± 0.0018
DAKNANEKNKTY [PIS1 C-terminal 12 aa]	0.687 ± 0.035	0.42 ± 0.033
DATLYLGRFLPH [PEF1 C-terminal 12 aa]	0.70773 ± 2.5e-05	0.667 ± 0.01
DDCLIELPNGNI [RRN9 C-terminal 12 aa]	0.6888 ± 0.0021	0.703 ± 0.041
DDGIATYNNTQG [KNS1 C-terminal 12 aa]	0.693 ± 0.03	0.72 ± 0.027
DDILSHGFEPLA [HTC1 C-terminal 12 aa]	0.7177 ± 0.0033	0.706 ± 0.027
DDKFRRSYDVKK [ERG13 C-terminal 12 aa]	0.731 ± 0.026	0.753 ± 0.12
DDTVQFMRRALE [EAF5 C-terminal 12 aa]	0.665 ± 0.045	0.719 ± 0.044
DEFWTDLFMNDI [WAR1 C-terminal 12 aa]	0.77 ± 0.0079	0.757 ± 0.036
DEQKHNENENSR [RPO21 C-terminal 12 aa]	0.693 ± 0.022	0.708 ± 0.021
DESVDMNVGISY [YCL046W C-terminal 12 aa]	0.721 ± 0.0092	0.718 ± 0.035

Sequence	protein stability index [1]	protein stability index (genetic background: wild type)
DETIKLKDKKIK [MRPL6 C-terminal 12 aa]	0.714 ± 0.012	0.655 ± 0.028
DFFREVKYGKKQ [ODC1 C-terminal 12 aa]	0.7097 ± 0.0027	0.72329 ± 0.00028
DFFYFFQGPFVL [YOR072W-B C-terminal 12 aa]	0.721 ± 0.013	0.731 ± 0.044
DGGWGNRGRSNY [DBP2 C-terminal 12 aa]	0.701 ± 0.01	0.667 ± 0.05
DGKIKIWKISRN [GID7 C-terminal 12 aa]	0.701 ± 0.021	0.711 ± 0.086
DGLLKNVWSYSR [RPS21A C-terminal 12 aa]	0.7161 ± 0.0069	0.7137 ± 0.0025
DGPKFTFKRRKG [XRS2 C-terminal 12 aa]	0.713 ± 0.027	0.778 ± 0.041
DGWIPTRTDDVK [TAD1 C-terminal 12 aa]	0.703 ± 0.008	0.707 ± 0.094
DGYPKDNEDIDP [MAL13 C-terminal 12 aa]	0.70018 ± 0.0004	0.708 ± 0.043
DIEVDHTKSTDP [DPB3 C-terminal 12 aa]	0.6917 ± 0.0038	0.676 ± 0.018
DILSQIIESCWV [YNL174W C-terminal 12 aa]	0.654 ± 0.0069	0.705 ± 0.083
DIMVFEISNCRV [HIS1 C-terminal 12 aa]	0.6816 ± 0.0057	0.73 ± 0.052
DIPRSNVYGSLI [SCY1 C-terminal 12 aa]	0.7131 ± 0.0063	0.672 ± 0.044
DITYDDYKSIDF [SUT1 C-terminal 12 aa]	0.694 ± 0.024	0.703 ± 0.095
DLEMEVIAVEKN [MMF1 C-terminal 12 aa]	0.681 ± 0.0085	0.674 ± 0.034
DLKKLIWNEIFS [FUS3 C-terminal 12 aa]	0.707 ± 0.021	0.684 ± 0.027
DLQSLIESNGFA [PFK27 C-terminal 12 aa]	0.689 ± 0.021	0.689 ± 0.026
DMLYDELMKTME [KSS1 C-terminal 12 aa]	0.7032 ± 0.00096	0.666 ± 0.022
DNNDLAKSSSQK [CMI7 C-terminal 12 aa]	0.7059 ± 0.0068	0.66 ± 0.048
DNNTVTANPTAR [YJR012C C-terminal 12 aa]	0.7033 ± 0.0028	0.6523 ± 0.003
DRCKEAVDHLMS [ISM1 C-terminal 12 aa]	0.686 ± 0.011	0.70544 ± 0.00054

Sequence	protein stability index [1]	protein stability index (genetic background: wild type)
DRIAAQTLEEDE [RPS19A C-terminal 12 aa]	0.687 ± 0.031	0.693 ± 0.05
DSDLFFVAEAIS [YIL032C C-terminal 12 aa]	0.7373 ± 0.0022	0.703 ± 0.022
DSFVEFWGRILY [PUL4 C-terminal 12 aa]	0.704 ± 0.033	0.6623 ± 0.0034
DSVIVVLKTPVE [SMD2 C-terminal 12 aa]	0.67383 ± 0.00026	0.658 ± 0.041
DTDGMQDQSSNI [IVY1 C-terminal 12 aa]	0.693 ± 0.019	0.679 ± 0.019
DVDLTKSGGFKT [CKB2 C-terminal 12 aa]	0.67664 ± 0.00023	0.714 ± 0.058
DVHSKIEKQLGI [UMP1 C-terminal 12 aa]	0.7202 ± 0.0061	0.697 ± 0.017
DWVSHGGDKLDL [RDL1 C-terminal 12 aa]	0.703 ± 0.042	0.704 ± 0.012
EAAKKSEKKSKK [RPL34B C-terminal 12 aa]	0.702 ± 0.015	0.706 ± 0.042
EAQTSRAKNELS [PHD1 C-terminal 12 aa]	0.6855 ± 0.004	0.575 ± 0.011
EAVKNDDIQIFG [BFR2 C-terminal 12 aa]	0.6921 ± 0.0018	0.722 ± 0.031
EDADNDNDYDHE [SAP155 C-terminal 12 aa]	0.677 ± 0.035	0.682 ± 0.0061
EDHRDISGKDVN [UBP1 C-terminal 12 aa]	0.68575 ± 0.0005	0.687 ± 0.033
EDLDADGDHKLV [TUB4 C-terminal 12 aa]	0.6839 ± 0.0032	0.672 ± 0.0083
EDLDSDLFSEVE [SSF1 C-terminal 12 aa]	0.682 ± 0.02	0.732 ± 0.027
EEEKRHGINLKC [GUP2 C-terminal 12 aa]	0.6905 ± 0.004	0.687 ± 0.045
EEFINKLVKAMN [RPL7B C-terminal 12 aa]	0.649 ± 0.012	0.6163 ± 0.0019
EEGIDPSTYLNN [SUB2 C-terminal 12 aa]	0.709 ± 0.033	0.684 ± 0.014
EEHHFYREHIFT [OCA4 C-terminal 12 aa]	0.7231 ± 0.0018	0.7118 ± 0.0058
